Biological target: ICAM-1 (COS cell transfectants) (UniProt P05362)
Experiment: FACS of COS transfectants, one transfection out of at least five attempts

Chain of UniProt P05362 (P05362 28-532 limits assumed): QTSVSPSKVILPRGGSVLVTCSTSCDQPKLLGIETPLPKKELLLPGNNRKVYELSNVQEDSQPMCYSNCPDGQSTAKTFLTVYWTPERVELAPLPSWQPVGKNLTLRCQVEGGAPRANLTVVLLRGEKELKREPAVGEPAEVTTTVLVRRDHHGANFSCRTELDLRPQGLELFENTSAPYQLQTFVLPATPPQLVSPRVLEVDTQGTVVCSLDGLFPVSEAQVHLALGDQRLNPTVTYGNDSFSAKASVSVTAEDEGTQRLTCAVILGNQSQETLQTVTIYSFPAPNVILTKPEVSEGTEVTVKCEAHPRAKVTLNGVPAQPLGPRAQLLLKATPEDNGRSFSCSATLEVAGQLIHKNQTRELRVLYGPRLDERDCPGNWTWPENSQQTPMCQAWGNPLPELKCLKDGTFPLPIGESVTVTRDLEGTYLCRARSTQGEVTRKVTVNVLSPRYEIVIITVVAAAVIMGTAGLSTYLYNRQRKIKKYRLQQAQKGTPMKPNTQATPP

“Fc-CD33Rg (from UniProt P20138 18-259) (Fc fusion)” showed a % binding of 36%.
